Measurements: PMC7249120, “Hybrid Imaging Agents for Pretargeting Applications Based on Fusarinine C—Proof of Concept” (Molecules, 2020)

Columns and labels:
[1] = assay type: physicochemical; conditions: pH 7.4
Method: To determine the hydrophilicity the distribution of the ^68Ga-labeled conjugates between an organic (octanol) and aqueous (PBS) layer was assessed. Aliquots (50 µL) of the ^68Ga-labeled tracers (~5 µM) were diluted in 1 mL of octanol/PBS (1:1, v/v) and the mixture was vortexed at 1400 rpm (MS 3 basic vortexer, IKA, Staufen, Germany) for 15 min at RT. Subsequently the mixture was centrifuged for 2 min at 4500 rpm followed by measuring aliquots (50 µL) of both layers in the gamma counter (Wizard^2 3”, Perkin Elmer, Waltham, MA, USA). LogD was calculated using Microsoft Excel (n = 3, six replicates).

[2] = system: CD20-expressing Raji cells pre-treated with Rituximab(RTX)–TCO; test: Cell binding studies on Raji cells pre-treated with RTX-TCO or non-modified RTX; assay type: cell-based, human; set-up: concentration or dose not given beside the values; conditions: radioligand 30 min, 37 °C
Method: CD20-expressing Raji cells ([…] lymphoblast-like B-lymphocyte cells) were obtained from the American Type Culture Collection (ATCC, Manassas, Virginia, USA). The cells were cultured in tissue culture flasks (Cellstar; Greiner Bio-One, Kremsmuenster, Austria) using RPMI-1640 medium with 10% (v/v) fetal bovine serum (FBS) as supplement (Invitrogen Corporation, Lofer, Austria). For cell binding studies 10 × 10^6 cells were washed twice with fresh medium, diluted with PBS to a final concentration of 1 × 10^6 cells per mL and 500 µL of cell suspension was transferred to Eppendorf tubes. Hereafter, 50 µL of RTX–TCO or non-modified RTX as negative control (both 0.5 µM) was added and the cell suspension was maintained at 37 °C under gentle shaking. After 1 h the suspension was centrifuged (2 min, 11 × 10^3 rcf), the supernatant was discarded and the cells were washed twice with 600 µL PBS and finally resuspended with 450 µL PBS. Subsequently 50 µL of the radioligand solution (22 nM) was added and the suspension was incubated for 30 min at 37 °C. After centrifugation and two washing steps with 600 µL PBS, the cells were resuspended in 500 µL PBS and transferred to polypropylene vials for gamma counter measurement followed by calculation of cell-associated activity in comparison to the total activity applied (n = 3, six replicates).

[3] = system: TCO-alendronate pre-treated mice (bone); test: PET/CT and optical imaging in the alendronate-TCO bone pretargeting model; assay type: in vivo, BALB/c mice; conditions: TCO-alendronate pre-treated mice vs alendronate alone; PET/CT 1 h p.i., OI of excised bones 24 h p.i.
Method: For the proof of concept of pretargeting in vivo a model described by Yazdani et al. was applied, based on TCO-modified alendronate for bone targeting. For preparation of TCO–alendronate, briefly, 20 mg sodium alendronate trihydrate (Sigma Aldrich) was dissolved in 400 µL 0.1N sodium-bicarbonate solution pH 8.5. Then 0.6 mL TCO–NHS ester (Click chemistry tools, Scottsdale, AZ, USA), 20 mg/mL in DMSO, were slowly added to the solution and stirred overnight in the dark, followed by freeze drying. As a control the same preparation was prepared, replacing TCO–NHS solution by the same volume of DMSO. For injection in mice the residue was dissolved in water and adjusted to pH 7 (30 mM).
MicroPET/CT images were acquired with an Albira PET/SPECT/CT small animal imaging system (Bruker Biospin Corporation, Woodbridge, CT, USA). […] After reconstruction, acquired data was viewed and analyzed with PMOD software (PMOD Technologies Ltd., Zurich, Switzerland).
Near-infrared in vivo fluorescence imaging was performed with an In-Vivo MS FX PRO small animal imaging system (Bruker Biospin Corporation, Woodbridge, CT, USA) after the PET/CT investigation. […] An appropriate filter set (λex = 710 nm and λem = 790 nm) was used for acquiring the fluorescence of the IRDye800CW-conjugates ex vivo. […] Acquired images were analyzed using Bruker MI SE software (Bruker Biospin Corporation, Woodbridge, CT, USA).

[4] = set-up: species or system BALB/c mice; conditions: mouse, in vivo, iv
Method: Biodistribution studies of the FSC-based hybrid imaging agents radiolabeled with Gallium-68 were performed using healthy five-week-old female BALB/c mice (Charles River Laboratories, Sulzfeld, Germany). Animals (n = 3) were injected via lateral tail vein with 1 nmol of conjugate and a total activity of approximately 6 MBq. Mice were sacrificed by cervical dislocation 1 h p.i. followed by collection of the main organs and tissue, subsequent gamma counter measurement and calculation of the percentage of injected activity per gram tissue (% IA/g).

Row | Structure (SMILES) | logD [1] | Cell binding (cell-associated activity of total activity applied) [2] [%] | Bone uptake in PET/CT and optical imaging [3] | Organ activities compared with SulfoCy5 and IRDye800CW counterparts [4]
1 | C/C1=C/C(=O)N(O)CCC[C@H](NC(=O)CCOCCOCCOCCOCCOCCC(=O)NCc2ccc(-c3nncnn3)cc2)C(=O)OCC/C(C)=C\C(=O)N(O)CCC[C@H](NC(=O)CCOCCOCCOCCOCCOCCC(=O)NCc2ccc(-c3nncnn3)cc2)C(=O)OCC/C(C)=C\C(=O)N(O)CCC[C@H](NC(=O)CCCCC[N+]2=C(/C=C/C3=C(Oc4ccc(S(=O)(=O)O)cc4)C(=C/C=C4/N(CCCCS(=O)(=O)O)c5ccc(S(=O)(=O)O)cc5C4(C)C)/CCC3)C(C)(C)c3cc(S(=O)(=O)[O-])ccc32)C(=O)OCC1 [IRDye800CW-FSC-(PEG5-Tz)2] | -2.46 ± 0.09 | 4.59 ± 1.45 | high accumulation in joints and spine | –
2 | CC(=O)N[C@H]1CCCN(O)C(=O)/C=C(/C)CCOC(=O)[C@@H](NC(=O)CCOCCOCCOCCOCCOCCC(=O)NCc2ccc(-c3nncnn3)cc2)CCCN(O)C(=O)/C=C(/C)CCOC(=O)[C@@H](NC(=O)CCCCC[N+]2=C(/C=C/C3=C(Oc4ccc(S(=O)(=O)O)cc4)C(=C/C=C4/N(CCCCS(=O)(=O)O)c5ccc(S(=O)(=O)O)cc5C4(C)C)/CCC3)C(C)(C)c3cc(S(=O)(=O)[O-])ccc32)CCCN(O)C(=O)/C=C(/C)CCOC1=O [IRDye800CW-MAFC-PEG5-Tz] | -2.4 ± 0.05 | 2.88 ± 0.53 | – | –
3 | C/C1=C/C(=O)N(O)CCC[C@H](NC(=O)CCOCCOCCOCCOCCOCCC(=O)NCc2ccc(-c3nncnn3)cc2)C(=O)OCC/C(C)=C\C(=O)N(O)CCC[C@H](NC(=O)CCOCCOCCOCCOCCOCCC(=O)NCc2ccc(-c3nncnn3)cc2)C(=O)OCC/C(C)=C\C(=O)N(O)CCC[C@H](NC(=O)CCCCC[N+]2=C(/C=C/C=C/C=C3/N(C)c4ccc(S(=O)(=O)O)cc4C3(C)C)C(C)(C)c3cc(S(=O)(=O)[O-])ccc32)C(=O)OCC1 [SulfoCy5-FSC-(PEG5-Tz)2] | -2.29 ± 0.1 | 5.91 ± 1.62 | – | –
4 | CC(=O)N[C@H]1CCCN(O)C(=O)/C=C(/C)CCOC(=O)[C@@H](NC(=O)CCOCCOCCOCCOCCOCCC(=O)NCc2ccc(-c3nncnn3)cc2)CCCN(O)C(=O)/C=C(/C)CCOC(=O)[C@@H](NC(=O)CCCCC[N+]2=C(/C=C/C=C/C=C3/N(C)c4ccc(S(=O)(=O)O)cc4C3(C)C)C(C)(C)c3cc(S(=O)(=O)[O-])ccc32)CCCN(O)C(=O)/C=C(/C)CCOC1=O [SulfoCy5-MAFC-PEG5-Tz] | -2.85 ± 0.08 | 3.09 ± 0.58 | – | –
5 | CC(=O)N[C@H]1CCCN(O)C(=O)/C=C(/C)CCOC(=O)[C@@H](NC(=O)CCOCCOCCOCCOCCOCCC(=O)NCc2ccc(-c3nncnn3)cc2)CCCN(O)C(=O)/C=C(/C)CCOC(=O)[C@@H](NC(=O)CCCCC[N+]2=C(/C=C/C3=CC(=C/C=C4/N(C)c5ccc(S(=O)(=O)O)cc5C4(C)C)/CCC3)C(C)(C)c3cc(S(=O)(=O)[O-])ccc32)CCCN(O)C(=O)/C=C(/C)CCOC1=O [SulfoCy7-MAFC-PEG5-Tz] | -1.92 ± 0.05 | 4.12 ± 0.88 | – | higher activities in all organs
